Assay results published in paper PMC1888729, “Control of Pre-mRNA Splicing by the General Splicing Factors PUF60 and U2AF65”.

Key:
[1] = molecular target: T1, PUF60 (short isoform PUF60S, HEK-293E-derived) (Homo sapiens, UniProt Q9UHX1-2 1-542); assay: EMSA; with U2AF65/35; PUF60 binding enhanced, U2AF:RNA complex decreases; 25 mM Tris pH 7.5, 25 mM NaCl, 1 mM EDTA, 0.1 mg/ml tRNA, 0.5 mg/ml BSA, ~0.2 nM RNA, 60 min room temperature (6% native gel in cold room); footprints same plus 1 U/ml RNasin, 30 min, then 2.6 mg/ml tRNA with RNase 5 min; details: protein: recombinant; label: 32P; single strand
T1 sequence (Q9UHX1 other isoform, or with tags, fused parts or gaps): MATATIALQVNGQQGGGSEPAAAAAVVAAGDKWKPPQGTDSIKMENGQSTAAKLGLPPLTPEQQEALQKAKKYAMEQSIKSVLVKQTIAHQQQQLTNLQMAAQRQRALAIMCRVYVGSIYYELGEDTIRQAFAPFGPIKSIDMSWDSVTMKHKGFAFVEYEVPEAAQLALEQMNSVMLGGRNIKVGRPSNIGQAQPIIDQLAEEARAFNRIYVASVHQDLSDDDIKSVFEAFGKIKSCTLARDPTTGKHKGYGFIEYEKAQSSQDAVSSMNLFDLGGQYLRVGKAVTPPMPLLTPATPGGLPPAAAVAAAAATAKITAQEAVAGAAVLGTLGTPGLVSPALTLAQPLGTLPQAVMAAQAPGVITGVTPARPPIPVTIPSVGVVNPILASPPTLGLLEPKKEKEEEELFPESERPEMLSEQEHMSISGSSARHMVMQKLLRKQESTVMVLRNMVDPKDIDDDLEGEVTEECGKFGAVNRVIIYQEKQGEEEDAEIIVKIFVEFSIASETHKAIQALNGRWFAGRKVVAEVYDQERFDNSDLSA

U2AF65 (in U2AF65/35 …) = molecular target: U2AF65 (in U2AF65/35 heterodimer);U2AF35 (in U2AF65/35 heterodimer) (Homo sapiens;Homo sapiens, UniProt P26368;Q01081 1-475;1-240, |); assay: EMSA; U2AF65/35 alone; 25 mM Tris pH 7.5, 25 mM NaCl, 1 mM EDTA, 0.1 mg/ml tRNA, 0.5 mg/ml BSA, ~0.2 nM RNA, 60 min room temperature (6% native gel in cold room); footprints same plus 1 U/ml RNasin, 30 min, then 2.6 mg/ml tRNA with RNase 5 min; details: protein: recombinant;recombinant; tags: ;; copies: 1;1; label: 32P; single strand
Sequence of U2AF65 (in U2AF65/35 heterodimer);U2AF35 (in U2AF65/35 heterodimer) (P26368 whole entry, chain 1 of 2, canonical isoform): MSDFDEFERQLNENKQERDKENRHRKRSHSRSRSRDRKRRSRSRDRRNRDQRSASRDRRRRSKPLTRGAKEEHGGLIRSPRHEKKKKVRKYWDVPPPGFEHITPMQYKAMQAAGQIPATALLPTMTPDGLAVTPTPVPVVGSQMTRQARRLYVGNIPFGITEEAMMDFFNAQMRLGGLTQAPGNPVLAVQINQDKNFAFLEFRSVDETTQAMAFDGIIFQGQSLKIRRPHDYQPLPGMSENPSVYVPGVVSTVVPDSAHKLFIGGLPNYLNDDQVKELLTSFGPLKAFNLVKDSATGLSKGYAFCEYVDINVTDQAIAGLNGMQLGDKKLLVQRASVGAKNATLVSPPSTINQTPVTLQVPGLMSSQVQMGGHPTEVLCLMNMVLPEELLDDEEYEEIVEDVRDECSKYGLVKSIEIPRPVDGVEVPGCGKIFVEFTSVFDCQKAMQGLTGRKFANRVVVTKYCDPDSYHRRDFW
Sequence of U2AF65 (in U2AF65/35 heterodimer);U2AF35 (in U2AF65/35 heterodimer) (Q01081 whole entry, chain 2 of 2, canonical isoform): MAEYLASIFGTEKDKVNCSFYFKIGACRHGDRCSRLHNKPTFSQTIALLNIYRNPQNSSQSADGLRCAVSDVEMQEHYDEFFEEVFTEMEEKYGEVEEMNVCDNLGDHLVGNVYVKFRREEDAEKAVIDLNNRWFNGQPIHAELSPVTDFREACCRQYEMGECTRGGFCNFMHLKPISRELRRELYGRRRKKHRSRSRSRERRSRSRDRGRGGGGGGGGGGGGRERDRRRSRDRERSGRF

[2] = molecular target: T1, PUF60 (short isoform PUF60S, …); assay: EMSA; PUF60 alone; 25 mM Tris pH 7.5, 25 mM NaCl, 1 mM EDTA, 0.1 mg/ml tRNA, 0.5 mg/ml BSA, ~0.2 nM RNA, 60 min room temperature (6% native gel in cold room); footprints same plus 1 U/ml RNasin, 30 min, then 2.6 mg/ml tRNA with RNase 5 min; details: protein: recombinant; label: 32P; single strand

Measured: binding result

UUCGUGCUGACCCUGUCCCUUUUUUUUCCACAGC (ssRNA) [AdML 3' splice-site RNA, 34 nt]
binds: all assays above
